Reference: patent US20180118814A1 (IGM BIOSCIENCES, published 2018)

Molecular target: T1, HBsAg (Prospec HBS-872) (hepatitis B virus)
T1 chain: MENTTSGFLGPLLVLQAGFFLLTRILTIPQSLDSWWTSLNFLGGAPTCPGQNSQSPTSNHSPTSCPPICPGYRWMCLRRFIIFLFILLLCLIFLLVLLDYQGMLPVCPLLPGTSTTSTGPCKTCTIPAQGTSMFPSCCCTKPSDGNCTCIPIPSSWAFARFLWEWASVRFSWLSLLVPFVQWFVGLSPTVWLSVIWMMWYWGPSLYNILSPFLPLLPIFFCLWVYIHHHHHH
Experiment: ELISA, plate coated with HBsAg (Prospec HBS-872), anti-human lambda-HRP detection, weight concentrations

B1: HBV23G (antibody, human IgG1, lambda, V domains shown)
VH: EVQVLESGGGLVQPGGSLRLSCAASGFRFSSYAMSWVRQAPGKGLEWVSGISGTGENTYYADSVKGRFTISRDNSKNTLYVQMNSLRAEDTAVYYCAKDAILGSGHPWYFHVWGRGTLVTVSS
VL: SYVLTQPPSVSVAPGQTARMTCGGNNIGSESVHWFQQKPGQAPVLVVYDDSDRPSGIPERFSGSNSGNTATLTISRVEAGDEADYYCQVWDSSSDHAVFGGGTQLTVLG
notes: also called IgG counterpart (HBV23G); human IgG antibody provided in Cerino et al. (2015)
**Q.** With B1 as the binder, how does the EC50 read?
**A.** 0.03 µg/mL

B2: HBV23MJ (antibody)
heavy: EVQVLESGGGLVQPGGSLRLSCAASGFRFSSYAMSWVRQAPGKGLEWVSGISGTGENTYYADSVKGRFTISRDNSKNTLYVQMNSLRAEDTAVYYCAKDAILGSGHPWYFHVWGRGTLVTVSSGSASAPTLFPLVSCENSPSDTSSVAVGCLAQDFLPDSITFSWKYKNNSDISSTRGFPSVLRGGKYAATSQVLLPSKDVMQGTDEHVVCKVQHPNGNKEKNVPLPVIAELPPKVSVFVPPRDGFFGNPRKSKLICQATGFSPRQIQVSWLREGKQVGSGVTTDQVQAEAKESGPTTYKVTSTLTIKESDWLSQSMFTCRVDHRGLTFQQNASSMCVPDQDTAIRVFAIPPSFASIFLTKSTKLTCLVTDLTTYDSVTISWTRQNGEAVKTHTNISESHPNATFSAVGEASICEDDWNSGERFTCTVTHTDLPSPLKQTISRPKGVALHRPDVYLLPPAREQLNLRESATITCLVTGFSPADVFVQWMQRGQPLSPEKYVTSAPMPEPQAPGRYFAHSILTVSEEEWNTGETYTCVVAHEALPNRVTERTVDKSTGKPTLYNVSLVMSDTAGTCY
light: SYVLTQPPSVSVAPGQTARMTCGGNNIGSESVHWFQQKPGQAPVLVVYDDSDRPSGIPERFSGSNSGNTATLTISRVEAGDEADYYCQVWDSSSDHAVFGGGTQLTVLGQPKAAPSVTLFPPSSEELQANKATLVCLISDFYPGAVTVAWKADSSPVKAGVETTTPSKQSNNKYAASSYLSLTPEQWKSHRSYSCQVTHEGSTVEKTVAPTECS
chain: not shown
notes: Human IgM with human J-chain; also called HBV23 anti-HBsAg IgM+human J-chain
**Q.** How did the EC50 turn out when B2 was run?
**A.** 0.064 µg/mL
